Results reported in patent publication US20060177880A1 (ROCHE DIAGNOSTICS OPERATIONS, published 2006).

Biological target: T1, ILEU (Leukocyte elastase inhibitor) (human, UniProt P30740 1-379)
T1 sequence: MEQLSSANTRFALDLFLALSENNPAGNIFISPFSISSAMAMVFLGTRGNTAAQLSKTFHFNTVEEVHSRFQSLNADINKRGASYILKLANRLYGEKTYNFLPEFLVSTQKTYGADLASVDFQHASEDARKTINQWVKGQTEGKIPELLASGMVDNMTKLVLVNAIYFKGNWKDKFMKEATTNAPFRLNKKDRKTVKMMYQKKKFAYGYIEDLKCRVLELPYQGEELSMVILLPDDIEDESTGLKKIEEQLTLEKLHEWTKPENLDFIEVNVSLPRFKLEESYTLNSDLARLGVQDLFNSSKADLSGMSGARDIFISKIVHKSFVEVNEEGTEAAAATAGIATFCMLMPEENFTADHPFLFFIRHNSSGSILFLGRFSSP
Assay: 2D gel (IEF and SDS-PAGE) of tumor tissue lysate, spot identified by MALDI-TOF mass spectrometry
Procedure: For IEF, 3 ml of the suspension are mixed with 12 ml sample buffer (7 M urea, 2 M thiourea, 2% CHAPS, 0.4% IPG buffer pH 6-9, 0.5% DTT) and incubated for 1 h. The samples are concentrated in an Amicon® Ultra-15 device (Millipore GmbH, Schwalbach, Germany) and the protein concentration is determined using the Bio-Rad® protein assay (Cat. No. 500-0006; Bio-Rad Laboratories GmbH, Munchen, Germany) following the instructions of the supplier's manual. To a volume corresponding to 1.5 mg of protein sample buffer is added to a final volume of 350 μl. This solution is used to rehydrate IPG strips pH 6-9 (Amersham Biosciences, Freiburg, Germany) overnight. The IEF is performed using the following gradient protocol: 1.) 1 minute to 500 V; 2.) 2 h to 3,500 V; 3.) 22 h at constant 3,500 V giving rise to 82 kVh. After IEF, strips are stored at −80° C. or directly used for SDS-PAGE. […]
Each patient is analyzed separately by image analysis with the ProteomeWeaver® software (Definiens AG, Germany, München). […] For each patient, 4 gels from the tumor sample are compared with 4 gels each from adjacent normal and stripped mucosa tissue and analyzed for distinctive spots corresponding to differentially expressed proteins. […]

binding result: binds
B1: PRN3 (proteinase 3) (enzyme)
chain: IVGGHEAQPHSRPYMASLQMRGNPGSHFCGGTLIHPSFVLTAAHCLRDIPQRLVNVVLGAHNVRTQEPTQQHFSVAQVFLNNYDAENKLNDVLLIQLSSPANLSASVATVQLPQQDQPVPHGTQCLAMGWGRVGAHDPPAQVLQELNVTVVTFFCRPHNICTFVPRRKAGICFGDSGGPLICDGIIQGIDSFVIWGCATRLFPDFFTRVALYVDWIRSTLR
notes: Endogenous protein in lysates of human colorectal tumor tissue, with an apparent MW of ~28 kDa on the blot; also called uncomplexed PRN3
